Patent publication US20240317846A1 (priority 2021, published 2024)
Where “and” joins values, the source holds several entries; their conditions need not be identical. Equal entries are not always repeated. Where two headings read alike, the source gives them in different places. Marks after values point to notes of the source that are not given here.

Columns and labels:
[1] = test system: severe and critical COVID-19 pneumonia
[2] = target: glycosylated human GM-CSF (Homo sapiens, UniProt P04141); test: Binding affinity for GM-CSF
[3] = test system: severe COVID-19 pneumonia

Sequence of glycosylated human GM-CSF (P04141 18-144): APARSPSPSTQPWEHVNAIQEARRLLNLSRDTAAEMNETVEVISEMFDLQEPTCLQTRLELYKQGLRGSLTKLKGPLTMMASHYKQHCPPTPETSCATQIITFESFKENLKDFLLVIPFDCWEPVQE

B1: Lenzilumab: first-in-class Humaneered recombinant monoclonal antibody targeting human GM-CSF, derived from mouse antibody LMM102 (antibody, chains of the INN, looked up, V domains shown)
VH: QVQLVQSGAEVKKPGASVKVSCKASGYSFTNYYIHWVRQAPGQRLEWMGWINAGNGNTKYSQKFQGRVTITRDTSASTAYMELSSLRSEDTAVYYCVRRQRFPYYFDYWGQGTLVTVSS
VL: EIVLTQSPATLSVSPGERATLSCRASQSVGTNVAWYQQKPGQAPRVLIYSTSSRATGITDRFSGSGSGTDFTLTISRLEPEDFAVYYCQQFNKSPLTFGGGTKVEIK
**Q.** How did the “Median time to discharge post-lenzilumab” value ([1]; 11 discharged patients) turn out when B1 was run?
**A.** The value was 5 days.

**Q.** And the Infusion reactions ([1]; 12 patients)?
**A.** The Infusion reactions was “no infusion reactions”.

**Q.** What about the “Median time to a 2-point clinical improvement” value ([1]; 12 patients) of the same molecule?
**A.** Its value is 5 days.

**Q.** And the Patients discharged ([1]; 12 patients)?
**A.** The Patients discharged was 11 of 12.

**Q.** What about the “Patients discharged on home oxygen” value ([1]; 12 patients) of the same molecule?
**A.** Its value is 42%.

**Q.** What about the “Patients who required invasive mechanical ventilation” value ([1]; 12 patients) of the same molecule?
**A.** The value was 8.3%.

**Q.** What about the “Clinical improvement of at least 2 points on the 8-point ordinal clinical endpoints scale, proportion of patients” value ([1]; 12 patients, 600 mg IV every 8 h x3) of the same molecule?
**A.** The value was 92% and 91.7%.

**Q.** What about the “Mean IL-6 on day 3 following lenzilumab” value ([1]; baseline 26.8 pg/mL) of the same molecule?
**A.** Its value is 16.1 pg/mL.

**Q.** What about the “Mean CRP on day 3 following lenzilumab” value ([1]; baseline 137.3 mg/L) of the same molecule?
**A.** Its value is 51.2 mg/L.

**Q.** What about the “Absolute lymphocyte count on day 3” value ([1]; baseline 0.89) of the same molecule?
**A.** Its value is 1.14e+09 L⁻¹.

**Q.** And the “Mean absolute neutrophil count on day 3 post lenzilumab” value ([1]; baseline 5.1)?
**A.** Its value is 4.8e+09 L⁻¹.

**Q.** And the “Mean hemoglobin on day 3 post lenzilumab” value ([1]; baseline 12.9)?
**A.** The value was 11.4 g/dL.

**Q.** What about the “Mean temperature at day 3” value ([1]; baseline 37.95) of the same molecule?
**A.** Its value is 36.97.

**Q.** And the “Proportion of patients with SpO2/FiO2<315 at the end of observation” value ([1]; baseline 67%)?
**A.** The value was 8%.

**Q.** And the “Mean platelet count on day 3 post lenzilumab” value ([1]; baseline 217.7)?
**A.** Its value is 2.618e+11 L⁻¹.

**Q.** What about the D-dimer after lenzilumab ([1]; individual patients 2 and 4) of the same molecule?
**A.** The D-dimer after lenzilumab was 1507 ng/mL and 1802 ng/mL.

**Q.** And the “Ferritin after lenzilumab, at discharge” value ([1]; individual patients 3 and 5)?
**A.** The value was 571 µg/L and 1223 µg/L.

**Q.** And the “Patients whose SpO2/FiO2 improved to >315 on day 1 post-lenzilumab” value ([1]; of 8 patients with SpO2/FiO2<315 at baseline)?
**A.** Its value is “four”.

**Q.** And the “Patients with a 2-point improvement on 8-point ordinal scale” value ([1]; of 12 patients)?
**A.** The value was 1 patient.

**Q.** And the “Patients with ≥3-point improvement on 8-point ordinal scale” value ([1]; of 12 patients)?
**A.** The value was 10 patients.

**Q.** And the “Cytokines involved in cytokine storm (G-CSF, MDC, GM-CSF, IL-1α, IFN-γ, IL-7, FLT-3L, IL-1rα, IL-6, IL-12p70)” value ([1]; one patient, 48 hours post-lenzilumab vs pretreatment)?
**A.** Its value is “significant reduction”.

**Q.** What about the LDH after lenzilumab ([1]; patient 4, hospital day 3) of the same molecule?
**A.** The LDH after lenzilumab was 388 U/L.

**Q.** And the “Range of days to discharge” value ([1]; patient 9 pending)?
**A.** The value was “(3-14)*** days”.

**Q.** And the “Patients requiring mechanical invasive ventilation” value ([1]; patients 1-5)?
**A.** The value was “None”.

**Q.** And the “Time to fever resolution after lenzilumab administration” value ([1]; patients febrile at baseline)?
**A.** The value was ≤ 48 h.

**Q.** What about the “Time to clinical two point improvement, faster than comparator antivirals” value ([1]; vs Remdesivir, Lopinavir-Ritonavir, Tocilizumab cohorts) of the same molecule?
**A.** Its value is “more than 50%”.

**Q.** What about the Binding affinity [2] of the same molecule?
**A.** Its Binding affinity is “picomolar range”.

**Q.** What about the Kd [2] of the same molecule?
**A.** The Kd was 0.025 nM.

**Q.** What about the Off-rate [2] of the same molecule?
**A.** Its Off-rate is “slow off-rate”.

**Q.** What about the Acute kidney injury ([3]; Grade ≥3, Lenzilumab N = 255) of the same molecule?
**A.** Its Acute kidney injury is 5 (2.0) n (%).

**Q.** And the “Acute respiratory distress syndrome” value ([3]; Grade ≥3, Lenzilumab N = 255)?
**A.** The value was 4 (1.6) n (%).

**Q.** What about the Acute respiratory failure ([3]; Grade ≥3, Lenzilumab N = 255) of the same molecule?
**A.** Its Acute respiratory failure is 18 (7.1) n (%).

**Q.** And the Cardiac arrest ([3]; Grade ≥3, Lenzilumab N = 255)?
**A.** The Cardiac arrest was 8 (3.1) n (%).

**Q.** And the Cardiac disorders ([3]; Grade ≥3, Lenzilumab N = 255)?
**A.** Its Cardiac disorders is 15 (5.9) n (%).

**Q.** What about the Cardio-respiratory arrest ([3]; Grade ≥3, Lenzilumab N = 255) of the same molecule?
**A.** Its Cardio-respiratory arrest is 3 (1.2) n (%).

**Q.** What about the “General disorders and administration site conditions” value ([3]; Grade ≥3, Lenzilumab N = 255) of the same molecule?
**A.** Its value is 4 (1.6) n (%).

**Q.** And the Hypotension ([3]; Grade ≥3, Lenzilumab N = 255)?
**A.** The Hypotension was 2 (0.8) n (%).

**Q.** What about the Hypoxia ([3]; Grade ≥3, Lenzilumab N = 255) of the same molecule?
**A.** Its Hypoxia is 15 (5.9) n (%).

**Q.** And the Infections and infestations ([3]; Grade ≥3, Lenzilumab N = 255)?
**A.** The Infections and infestations was 10 (3.9) n (%).

**Q.** What about the “Multiple organ dysfunction syndrome” value ([3]; Grade ≥3, Lenzilumab N = 255) of the same molecule?
**A.** The value was 3 (1.2) n (%).

**Q.** And the Pneumonia bacterial ([3]; Grade ≥3, Lenzilumab N = 255)?
**A.** The Pneumonia bacterial was 0 (0.0) n (%).

**Q.** And the Pulmonary embolism ([3]; Grade ≥3, Lenzilumab N = 255)?
**A.** Its Pulmonary embolism is 5 (2.0) n (%).

**Q.** And the “Renal and urinary disorders” value ([3]; Grade ≥3, Lenzilumab N = 255)?
**A.** Its value is 5 (2.0) n (%).

**Q.** And the Respiratory failure ([3]; Grade ≥3, Lenzilumab N = 255)?
**A.** The Respiratory failure was 24 (9.4) n (%).

**Q.** And the “Respiratory, thoracic and mediastinal disorders” value ([3]; Grade ≥3, Lenzilumab N = 255)?
**A.** Its value is 64 (25.1) n (%).

**Q.** What about the Sepsis ([3]; Grade ≥3, Lenzilumab N = 255) of the same molecule?
**A.** Its Sepsis is 2 (0.8) n (%).

**Q.** What about the Septic shock ([3]; Grade ≥3, Lenzilumab N = 255) of the same molecule?
**A.** Its Septic shock is 5 (2.0) n (%).

**Q.** And the Shock ([3]; Grade ≥3, Lenzilumab N = 255)?
**A.** The Shock was 3 (1.2) n (%).

**Q.** What about the Vascular disorders ([3]; Grade ≥3, Lenzilumab N = 255) of the same molecule?
**A.** The Vascular disorders was 10 (3.9) n (%).

**Q.** And the “Kaplan-Meier Estimate of Failure to Achieve SWOV” value (from here on “Kaplan-Meier Estimate of Failure”) ([3]; ITT (n = 520))?
**A.** The value was 18.9%.

**Q.** And the “Kaplan-Meier Estimate of Failure” value ([3]; ITT subgroup n = 338, placebo 27.8%)?
**A.** The value was 17.8%.

**Q.** What about the “Kaplan-Meier Estimate of Failure” value ([3]; ITT, CRP <150 mg/L and age <85 (n = 359), placebo 22.6%) of the same molecule?
**A.** The value was 11.5%.

**Q.** And the Safety and tolerability ([3]; LIVE-AIR)?
**A.** Its Safety and tolerability is “safe and well tolerated”.

**Q.** And the “Any AE ≥ Grade 3” value ([3]; Lenzilumab N = 255)?
**A.** Its value is 68 (26.7) n (%).

**Q.** What about the “Serum CRP levels following treatment” value ([3]; from two days after administration for 28 days, only in baseline CRP<150 mg/L) of the same molecule?
**A.** The value was “decreased CRP levels”.

**Q.** What about the “Attributable serious adverse events” value ([3]; incl. hematologic, liver enzyme abnormalities, pulmonary alveolar proteinosis, infection) of the same molecule?
**A.** Its value is “no attributable serious adverse events”.

**Q.** What about the “Time to Recovery” value ([3]; mITT (n = 236), placebo 8) of the same molecule?
**A.** The value was 8 median days.

**Q.** And the Mortality ([3]; mITT (n = 236), placebo 13.9)?
**A.** Its Mortality is 9.6%.
